The results in this text go back to publication PMC7584215, ““The structure of the Type III secretion system export gate with CdsO, an ATPase lever arm”” (PLoS Pathogens, 2020).

B1: CdsV C-terminal region (residues 345-710) from Chlamydia pneumoniae (domain or fragment)
chain: ASTTVGAAGDGAATVGDNPDDYSLTLPVILELGKDLSKLIQHKTKSGQSFVDDMIPKMRQALYQDIGIRYPGIHVRTDSPSLEGYDYMILLNEVPYVRGKIPPHHVLTNEVEDNLSRYNLPFITYKNAAGLPSAWVSEDAKAILEKAAIKYWTPLEVIILHLSYFFHKSSQEFLGIQEVRSMIEFMERSFPDLVKEVTRLIPLQKLTEIFKRLVQEQISIKDLRTILESLSEWAQTEKDTVLLTEYVRSSLKLYISFKFSQGQSAISVYLLDPEIEEMIRGAIKQTSAGSYLALDPDSVNLILKSMRNTITPTPAGGQPPVLLTAIDVRRYVRKLIETEFPDIAVISYQEILPEIRIQPLGRIQIF
notes: CdsV (export gate protein, SctV family), Chlamydia pneumoniae, residues 345-710, the cytoplasmic C-terminal region; Cloned into pET28 with the vector's N-terminal hexa-His tag and thrombin cleavage site; Homo-nonameric ring; also called WT CdsVc; soluble export gate; source: nonameric peak fractions pooled
B2: CdsO residues 25-110 from Chlamydia pneumoniae (domain or fragment)
chain: KEKRRLLEIEQEKLREKEAERDKVKNHYMQKIQQLRDLLDEGTTSDAVLQIKSYIKVVAVQLSEEEEKVNKQKEVVLAASKELEKA
notes: CdsO (central stalk protein of the T3SS ATPase, SctO family), Chlamydia pneumoniae, residues 25-110 of the 168 residues of full-length CdsO; Cloned into pET28 as CdsV; Called monomeric in the ITC methods; also called CdsO_(25-110); central stalk protein

Data set [1] concerns the molecule itself. The data set can be described thus: crystal structure; CdsVC alone; hanging drop, 100 mM HEPES pH 6.75, 5% PEG-6000, 21°C; refined to 2.8 Å.
Data set [2] concerns the target B1. The data set can be described thus: crystal structure; CdsVC mixed with ~10% molar excess of CdsO_(25-110); 100 mM Bis-Tris pH 6.0, 4% PEG 3350, 200 mM ammonium acetate; refined to 4.6 Å. The following applies: both partners purified.
Data set [3] concerns the target B1. Kind of data set: ITC; monomeric CdsO_(25-110) (2.2 mM) titrated into nonameric CdsVc (15.0 uM) or nonameric CdsVc L638A/D639A (12.1 uM); 20°C; 10 mM HEPES pH 7.5, 500 mM NaCl; 24 x 2 uL injections. To be noted: both partners purified. (ITC needs no label: the signal is the heat of the interaction.)

Regarding B1, in data set [1], the stoichiometry N (in general, the number of molecules, sites or subunits per partner or assembly) was found to be 9.

With B2, the “stoichiometry N” value in data set [2] worked out at 1. In data set [3], binding was put at a Kd of 28 ± 3 µM.
